The values that follow come from paper PMC13140691.

This assay deals with GST-LcGLO1 (litchi).

The substance His-PlAvh133 (natural protein) displayed an enzymatic activity of His-LcGLO1 in vitro (glycolate oxidase assay, H2O2 read at 520 nm, 30°C) with His-PlAvh133 added of 40 % inhibition.
